Test results taken from patent US20100272706A1, “ANTIVIRALS” (priority 2007, published 2010).

B1: AID (protein, UniProt Q9GZX7 1-198, looked up)
Single-stranded DNA cytosine …: MDSLLMNRRKFLYQFKNVRWAKGRRETYLCYVVKRRDSATSFSLDFGYLRNKNGCHVELLFLRYISDWDLDPGRCYRVTWFTSWSPCYDCARHVADFLRGNPNLSLRIFTARLYFCEDRKAEPEGLRRLHRAGVQIAIMTFKDYFYCWNTFVENHERTFKAWEGLHENSVRLSRQLRRILLPLYEVDDLRDAFRTLGL
B2: dominant negative dynamin (K44A) (protein, UniProt Q05193 1-864, looked up, variant K44A)
Dynamin-1: MGNRGMEDLIPLVNRLQDAFSAIGQNADLDLPQIAVVGGQSAGASSVLENFVGRDFLPRGSGIVTRRPLVLQLVNATTEYAEFLHCKGKKFTDFEEVRLEIEAETDRVTGTNKGISPVPINLRVYSPHVLNLTLVDLPGMTKVPVGDQPPDIEFQIRDMLMQFVTKENCLILAVSPANSDLANSDALKVAKEVDPQGQRTIGVITKLDLMDEGTDARDVLENKLLPLRRGYIGVVNRSQKDIDGKKDITAALAAERKFFLSHPSYRHLADRMGTPYLQKVLNQQLTNHIRDTLPGLRNKLQSQLLSIEKEVEEYKNFRPDDPARKTKALLQMVQQFAVDFEKRIEGSGDQIDTYELSGGARINRIFHERFPFELVKMEFDEKELRREISYAIKNIHGIRTGLFTPDMAFETIVKKQVKKIREPCLKCVDMVISELISTVRQCTKKLQQYPRLREEMERIVTTHIREREGRTKEQVMLLIDIELAYMNTNHEDFIGFANAQQRSNQMNKKKTSGNQDEILVIRKGWLTINNIGIMKGGSKEYWFVLTAENLSWYKDDEEKEKKYMLSVDNLKLRDVEKGFMSSKHIFALFNTEQRNVYKDYRQLELACETQEEVDSWKASFLRAGVYPERVGDKEKASETEENGSDSFMHSMDPQLERQVETIRNLVDSYMAIVNKTVRDLMPKTIMHLMINNTKEFIFSELLANLYSCGDQNTLMEESAEQAQRRDEMLRMYHALKEALSIIGDINTTTVSTPMPPPVDDSWLQVQSVPAGRRSPTSSPTPQRRAPAVPPARPGSRGPAPGPPPAGSALGGAPPVPSRPGASPDPFGPPPQVPSRPNRAPPGVPSRSGQASPSRPESPRPPFDL

System: vaccinia virus mature virions (EGFP-MV)
Format: cell-based

Molecule | inhibition of infection by expression of construct | effect of expressed construct on infection
B1 | 80% | 
B2 |  | no impact
